What all share (assay): cell-based or functional assay
The target in experiment [1] is T1, human IL-2 receptor (IL-2Rα, IL-2Rβ, IL-2Rγ) (human, UniProt P01589 22-272; P14784 27-551; P31785 23-369).
T1 sequence (looked up) 1: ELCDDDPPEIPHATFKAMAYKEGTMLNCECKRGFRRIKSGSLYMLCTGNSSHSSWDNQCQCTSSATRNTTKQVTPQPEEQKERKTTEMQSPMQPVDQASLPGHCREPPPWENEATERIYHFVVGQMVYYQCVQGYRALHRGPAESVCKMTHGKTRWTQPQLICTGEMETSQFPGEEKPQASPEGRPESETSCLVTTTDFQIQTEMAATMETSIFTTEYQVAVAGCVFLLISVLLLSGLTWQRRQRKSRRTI
T1 sequence (looked up) 2: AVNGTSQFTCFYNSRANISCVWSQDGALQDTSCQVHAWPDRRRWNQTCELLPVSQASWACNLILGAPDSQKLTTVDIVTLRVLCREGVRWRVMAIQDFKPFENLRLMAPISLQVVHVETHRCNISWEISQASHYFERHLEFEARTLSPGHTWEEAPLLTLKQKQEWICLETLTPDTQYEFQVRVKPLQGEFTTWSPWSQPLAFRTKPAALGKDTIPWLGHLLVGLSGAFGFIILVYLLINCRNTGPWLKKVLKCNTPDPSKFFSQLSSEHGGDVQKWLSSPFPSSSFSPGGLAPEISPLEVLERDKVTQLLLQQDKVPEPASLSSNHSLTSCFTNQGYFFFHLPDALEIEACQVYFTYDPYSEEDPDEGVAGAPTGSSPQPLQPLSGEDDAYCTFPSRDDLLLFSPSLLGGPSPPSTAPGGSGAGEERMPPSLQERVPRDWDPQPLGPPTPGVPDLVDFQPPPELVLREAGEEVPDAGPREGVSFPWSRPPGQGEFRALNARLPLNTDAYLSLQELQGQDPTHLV
T1 sequence (looked up) 3: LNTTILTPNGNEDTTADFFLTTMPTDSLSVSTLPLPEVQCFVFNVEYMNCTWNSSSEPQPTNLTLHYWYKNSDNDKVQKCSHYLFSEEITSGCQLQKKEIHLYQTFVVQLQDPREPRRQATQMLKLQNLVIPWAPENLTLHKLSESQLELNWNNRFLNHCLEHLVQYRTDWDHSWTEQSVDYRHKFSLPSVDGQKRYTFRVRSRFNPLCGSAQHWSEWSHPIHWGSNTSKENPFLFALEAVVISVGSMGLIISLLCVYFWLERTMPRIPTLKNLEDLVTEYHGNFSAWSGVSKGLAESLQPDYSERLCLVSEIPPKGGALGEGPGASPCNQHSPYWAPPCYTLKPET

In experiment [2] the target is T2, human TIGIT on HEK-Blue reporter cells (human, UniProt Q495A1 22-244).
T2 sequence (looked up): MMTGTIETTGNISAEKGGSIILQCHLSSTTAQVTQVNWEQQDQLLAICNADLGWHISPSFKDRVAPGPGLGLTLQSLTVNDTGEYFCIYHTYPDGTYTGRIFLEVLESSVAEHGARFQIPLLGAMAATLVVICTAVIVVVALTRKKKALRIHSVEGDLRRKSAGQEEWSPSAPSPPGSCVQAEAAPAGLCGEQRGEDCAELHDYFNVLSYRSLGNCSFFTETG

Experiment [3] addresses T3, human IL-12 receptor complex (IL-12Rβ1 and IL-12Rβ2) (human, UniProt P42701 24-662; Q99665 24-862).
The target of experiment [4] is T4, human PD-1 on cells (HEK-PD-1 reporter cells; activated PBMC) (human, UniProt Q15116 25-288).
T4 sequence (Q15116 25-288): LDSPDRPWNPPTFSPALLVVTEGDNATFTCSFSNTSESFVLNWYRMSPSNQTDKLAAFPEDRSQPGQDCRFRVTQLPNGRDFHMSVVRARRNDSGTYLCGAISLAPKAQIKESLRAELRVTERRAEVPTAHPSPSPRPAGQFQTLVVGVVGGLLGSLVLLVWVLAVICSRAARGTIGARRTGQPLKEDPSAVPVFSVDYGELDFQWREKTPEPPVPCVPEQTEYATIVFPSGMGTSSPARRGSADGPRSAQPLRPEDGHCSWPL
Experiment [5] concerns the target T1, human IL-2 receptor (IL-2Rα, IL-2Rβ, …). This is another data set of the same source.
For experiment [6], the target named is T4, human PD-1 on cells (HEK-PD-1 reporter …). The source holds these as a separate data set.
For experiment [7], the target named is T3, human IL-12 receptor complex (IL-12Rβ1 …). The source holds these as a separate data set.

Changes are numbered by the printed parent chain. Numbers in names are those of the source. Where two headings read alike, the source gives them in different places.

T3 sequence (Q99665 24-862, chain 2 of 2, other chains not shown): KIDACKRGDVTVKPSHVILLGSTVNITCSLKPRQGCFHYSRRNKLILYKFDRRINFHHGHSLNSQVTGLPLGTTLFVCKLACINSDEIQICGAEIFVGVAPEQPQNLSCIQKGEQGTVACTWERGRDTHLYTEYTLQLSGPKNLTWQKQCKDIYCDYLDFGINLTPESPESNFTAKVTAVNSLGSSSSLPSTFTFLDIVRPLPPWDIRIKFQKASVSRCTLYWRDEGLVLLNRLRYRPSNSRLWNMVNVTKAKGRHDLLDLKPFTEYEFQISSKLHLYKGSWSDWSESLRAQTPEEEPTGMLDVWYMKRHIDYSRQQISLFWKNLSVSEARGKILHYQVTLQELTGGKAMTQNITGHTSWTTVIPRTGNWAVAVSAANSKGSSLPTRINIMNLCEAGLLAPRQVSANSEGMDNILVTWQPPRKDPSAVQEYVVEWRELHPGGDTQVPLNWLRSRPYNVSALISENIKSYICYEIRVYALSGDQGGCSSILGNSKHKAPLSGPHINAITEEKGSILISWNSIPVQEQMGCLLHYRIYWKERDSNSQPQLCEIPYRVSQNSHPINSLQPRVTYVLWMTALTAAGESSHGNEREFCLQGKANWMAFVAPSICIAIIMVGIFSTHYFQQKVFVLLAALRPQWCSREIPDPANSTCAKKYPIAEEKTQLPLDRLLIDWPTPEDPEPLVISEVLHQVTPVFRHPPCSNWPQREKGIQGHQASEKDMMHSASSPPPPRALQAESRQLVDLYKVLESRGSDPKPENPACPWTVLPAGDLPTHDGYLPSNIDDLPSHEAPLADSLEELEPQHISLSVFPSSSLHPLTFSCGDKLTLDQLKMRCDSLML

B1: IL-2(R38D/K43E/E61R/Q126T)/CD155-Fc/IL-12(E59A/F60A) (Fc fusion)
chain 1: WPPPGTGDVVVQAPTQVPGFLGDSVTLPCYLQVPNMEVTHVSQLTWARHGESGSMAVFHQTQGPSYSESKRLEFVAARLGAELRNASLRMFGLRVEDEGNYTCLFVTFPQGSRSVDIWLRVLAKPQNTAEVQKVQLTGEPVPMARCVSTGGRPPAQITWHSDLGGMPNTSQVPGFLSGTVTVTSLWILVPSSQVDGKNVTCKVEHESFEKPQLLTVNLTVYYPPEVSISGYDNNWYLGQNEATLTCDARSNPEPTGYNWSTTMGPLPPFAVAQGAQLLIRPVDKPINTTLICNVTNALGARQAELTVQVKEGPPSEHSGISRNGGGGSGGGDKTHTCPPCPAPEDEGGPSVFLFPPKPKDTLMISRTPEVTCVVVDVSHEDPEVKFNWYVDGVEVHNAKTKPREEQYNSTYRVVSVLTVLHQDWLNGKEYKCKVSNKALPAPIEKTISKAKGQPREPQVYVYPPSREEMTKNQVSLTCLVKGFYPSDIAVEWESNGQPENNYKTTPPVLDEDGSFALVSKLTVDKSRWQQGNVFSCSVMHEALHNHYTQKSLSLSPGKGGGGSGGGIWELKKDVYVVELDWYPDAPGEMVVLTCDTPEEDGITWTLDQSSEVLGSGKTLTIQVKAAGDAGQYTCHKGGEVLSHSLLLLHKKEDGIWSTDILKDQKEPKNKTFLRCEAKNYSGRFTCWWLTTISTDLTFSVKSSRGSSDPQGVTCGAATLSAERVRGDNKEYEYSVECQEDSACPAAEESLPIEVMVDAVHKLKYENYTSSFFIRDIIKPDPPKNLQLKPLKNSRQVEVSWEYPDTWSTPHSYFSLTFCVQVQGKSKREKKDRVFTDKTSATVICRKNASISVRAQDRYYSSSWSEWASVPCSGGGGSGGGSGGGGSRNLPVATPDPGMFPCLHHSQNLLRAVSNMLQKARQTLEFYPCTSEEIDHEDITKDKTSTVEACLPLELTKNESCLNSRETSFITNGSCLASRKTSFMMALCLSSIYEDLKMYQVEFKTMNAKLLMDPKRQIFLDQNMLAVIDELMQALNFNSETVPQKSSLEEPDFYKTKIKLCILLHAFRIRAVTIDRVMSYLNAS
chain 2: WPPPGTGDVVVQAPTQVPGFLGDSVTLPCYLQVPNMEVTHVSQLTWARHGESGSMAVFHQTQGPSYSESKRLEFVAARLGAELRNASLRMFGLRVEDEGNYTCLFVTFPQGSRSVDIWLRVLAKPQNTAEVQKVQLTGEPVPMARCVSTGGRPPAQITWHSDLGGMPNTSQVPGFLSGTVTVTSLWILVPSSQVDGKNVTCKVEHESFEKPQLLTVNLTVYYPPEVSISGYDNNWYLGQNEATLTCDARSNPEPTGYNWSTTMGPLPPFAVAQGAQLLIRPVDKPINTTLICNVTNALGARQAELTVQVKEGPPSEHSGISRNGGGSGAPTSSSTKKTQLQLEHLLLDLQMILNGINNYKNPKLTDMLTFEFYMPKKATELKHLQCLERELKPLEEVLNLAQSKNFHLRPRDLISNINVIVLELKGSETTFMCEYADETATIVEFLNRWITFCTSIISTLTGGGGSGGGDKTHTCPPCPAPEKKGGPSVFLFPPKPKDTLMISRTPEVTCVVVDVSHEDPEVKFNWYVDGVEVHNAKTKPREEQYNSTYRVVSVLTVLHQDWLNGKEYKCKVSNKALPAPIEKTISKAKGQPREPQVYVLPPSREEMTKNQVSLLCLVKGFYPSDIAVEWESNGQPENRYMTWPPVLDSDGSFFLYSKLTVDKSRWQQGNVFSCSVMHEALHNHYTQKSLSLSPGK
Turning to B1, the “IL-2 signal transduction, HEK-IL-2” value in experiment [1] was found to be 3%. Besides, in experiment [2], the “IL-2 signal transduction, HEK-IL-2-TIGIT” value stood at 28% and the “IL-12 signal transduction, HEK-IL-12-TIGIT” value is 32%. Also, the “IL-12 signal transduction, HEK-IL-12” value in experiment [3] was 2%.

B2: IL-2(L18R/Q22E/R38D/K43E/E61R/Q126T/S130R)/CD155-Fc/IL-12(E59A/F60A) (Fc fusion)
chain 1: B1 chain 1
chain 2: B1 chain 2 with L346R, Q350E, S458R
In the case of B2, the “IL-2 signal transduction, HEK-IL-2” value in experiment [1] was below 0.1%. Further, in experiment [2], the “IL-2 signal transduction, HEK-IL-2-TIGIT” value was below 0.1% and the “IL-12 signal transduction, HEK-IL-12-TIGIT” value came out at 24%. In addition, the “IL-12 signal transduction, HEK-IL-12” value in experiment [3] was determined as 3%.

B3: IL-2(L18R/Q22E/R38D/K43E/E61R/Q126T)/CD155-Fc/IL-12(E59A/F60A) (Fc fusion)
chain 1: B1 chain 1
chain 2: B1 chain 2 with L346R, Q350E
In the case of B3, the “IL-2 signal transduction, HEK-IL-2” value in experiment [1] was 5%. Moreover, in experiment [2], the “IL-2 signal transduction, HEK-IL-2-TIGIT” value came out at 18% and the “IL-12 signal transduction, HEK-IL-12-TIGIT” value was determined as 29%. Further, the “IL-12 signal transduction, HEK-IL-12” value in experiment [3] was below 0.2%.

B4: IL-2(R38D/K43E/E61R)/PD-L1(mut2)-Fc (Fc fusion)
chain 1: FTVTVPKDLYVVEYGSNMTIECKFPVEKQLDLAALQVYWMMEDKNIIQFVHGEEDLKVQHSSYRQRARLLKDQLSLGNAALQITDVKLQDAGVYTCLIAYKGADYKRITVKVNAPYNKINQRILVVDPVTSEHELTCQAEGYPKAEVIWTSSDHQVLSGKTTTTNSKREEKLFNVTSTLRINTTTNEIFYCTFRRLDPEENHTAELVIPELPLAHPPNERGGGGSGGGDKTHTCPPCPAPEDEGGPSVFLFPPKPKDTLMISRTPEVTCVVVDVSHEDPEVKFNWYVDGVEVHNAKTKPREEQYNSTYRVVSVLTVLHQDWLNGKEYKCKVSNKALPAPIEKTISKAKGQPREPQVYVYPPSREEMTKNQVSLTCLVKGFYPSDIAVEWESNGQPENNYKTTPPVLDEDGSFALVSKLTVDKSRWQQGNVFSCSVMHEALHNHYTQKSLSLSPGK
chain 2: FTVTVPKDLYVVEYGSNMTIECKFPVEKQLDLAALQVYWMMEDKNIIQFVHGEEDLKVQHSSYRQRARLLKDQLSLGNAALQITDVKLQDAGVYTCLIAYKGADYKRITVKVNAPYNKINQRILVVDPVTSEHELTCQAEGYPKAEVIWTSSDHQVLSGKTTTTNSKREEKLFNVTSTLRINTTTNEIFYCTFRRLDPEENHTAELVIPELPLAHPPNERGGGSGAPTSSSTKKTQLQLEHLLLDLQMILNGINNYKNPKLTDMLTFEFYMPKKATELKHLQCLERELKPLEEVLNLAQSKNFHLRPRDLISNINVIVLELKGSETTFMCEYADETATIVEFLNRWITFCQSIISTLTGGGGSGGGDKTHTCPPCPAPEKKGGPSVFLFPPKPKDTLMISRTPEVTCVVVDVSHEDPEVKFNWYVDGVEVHNAKTKPREEQYNSTYRVVSVLTVLHQDWLNGKEYKCKVSNKALPAPIEKTISKAKGQPREPQVYVLPPSREEMTKNQVSLLCLVKGFYPSDIAVEWESNGQPENRYMTWPPVLDSDGSFFLYSKLTVDKSRWQQGNVFSCSVMHEALHNHYTQKSLSLSPGK
For the molecule B4, the “IL-2 signal transduction, HEK-IL-2-PD-1” value in experiment [4] was determined as 76%. Moreover, the “IL-2 signal transduction, HEK-IL-2” value in experiment [5] was determined as 16%.

B5: IL-2(R38D/K43E/E61R/Q126T)/PD-L1(mut2)-Fc (Fc fusion)
chain 1: B4 chain 1
chain 2: B4 chain 2 with Q351T
Turning to B5, the “IL-2 signal transduction, HEK-IL-2-PD-1” value in experiment [4] turned out to be 20%. In addition, the “IL-2 signal transduction, HEK-IL-2” value in experiment [5] was found to be 2%.

B6: IL-2(L18R/Q22E/R38D/K43E/E61R)/PD-L1(mut2)-Fc (Fc fusion)
chain 1: B4 chain 1
chain 2: B4 chain 2 with L243R, Q247E
With B6, the “IL-2 signal transduction, HEK-IL-2-PD-1” value in experiment [4] was 35%. Also, in experiment [5], the “IL-2 signal transduction, HEK-IL-2” value is 4%.

B7: IL-12(E59A/F60A)/anti-PD-1(N99A) (antibody)
light: not shown
heavy: not shown
heavy (part 1 of 2): QVQLVESGGGVVQPGRSLRLDCKASGITFSNSGMHWVRQAPGKGLEWVAVIWYDGSKRYYADSVKGRFTISRDNSKNTLFLQMNSLRAEDTAVYYCATADDYWGQGTLVTVSSAS
heavy (part 2 of 2): EPKSCDKTHTCPPCPAPEKKGGPSVFLFPPKPKDTLMISRTPEVTCVVVDVSHEDPEVKFNWYVDGVEVHNAKTKPREEQYNSTYRVVSVLTVLHQDWLNGKEYKCKVSNKALPAPIEKTISKAKGQPREPQVYVLPPSREEMTKNQVSLLCLVKGFYPSDIAVEWESNGQPENRYMTWPPVLDSDGSFFLYSKLTVDKSRWQQGNVFSCSVMHEALHNHYTQKSLSLSPGK
On to B7, for which, in experiment [6], the “IFN-γ release, activated PBMC” value is 12 ng/mL; the “IL-12 signal transduction, HEK-IL-12-PD-1 (high)” value came out at 3%; the “IL-12 signal transduction, HEK-IL-12-PD-1 (low)” value is below 0.2%. In addition, in experiment [7], the “IL-12 signal transduction, HEK IL-12” value is below 0.2%.

B8: IL-12(E59A/F60A)/anti-PD-1(N99M) (antibody)
light: not shown
heavy: not shown
heavy (part 1 of 2): B7 heavy (part 1 of 2) with A99M
heavy (part 2 of 2): B7 heavy (part 2 of 2)
For B8, in experiment [6], the “IFN-γ release, activated PBMC” value worked out at 13 ng/mL; the “IL-12 signal transduction, HEK-IL-12-PD-1 (high)” value was below 0.2%; the “IL-12 signal transduction, HEK-IL-12-PD-1 (low)” value is below 0.2%. Besides, the “IL-12 signal transduction, HEK IL-12” value in experiment [7] was below 0.2%.

The values are drawn from patent publication US20240392004A1 (IMMUNOWAKE, published 2024).
